{"source": "paper PMC9405070", "about": "“Metabolic and Structural Insights into Hydrogen Sulfide Mis-Regulation in Enterococcus faecalis” (Antioxidants, 2022)", "key": {"[1]": {"target": "Enterococcus faecalis coenzyme A persulfide (CoASSH) reductase (Enterococcus faecalis strain OG1RF)", "assay": "crystal structure; EfCoAPR as isolated from E. coli, with FAD and CoA (PAP moiety seen); crystals in 20% PEG 3350, 0.1 M Bis-Tris propane pH 6.50, 0.2 M sodium iodide; two molecules in the asymmetric unit; 2.05 Å"}, "[2]": {"target": "T1, Ef Pta / EfPta (phosphotransacetylase) (Enterococcus faecalis, UniProt A0ACD6TAM5)", "T1 construct": "Ni-NTA and Superdex G200; C182 in CoA pocket, R319, S318, D325 in active site", "assay": "acetyl-CoA yield by LC-MS after […] s", "assay_type": "biochemical", "conditions": "150 uM CoASSH as in situ mixture with equimolar CoASH, excess Na2S and CoA disulfide; 5 mM acetylphosphate, pH 8.0, room temperature, anaerobic"}, "[3]": {"target": "T1, Ef Pta / EfPta (phosphotransacetylase)", "assay": "thioester formation at […] nm", "assay_type": "biochemical", "conditions": "5 mM acetylphosphate; 25 mM Tris-HCl, 40 mM KCl, pH 8.0, room temperature, anaerobic; 10 uM to 5 mM CoA"}, "purified protein": {"substrate": "CC(=O)SCCNC(=O)CCNC(=O)[C@H](O)C(C)(C)COP(=O)(O)OP(=O)(O)OC[C@H]1O[C@@H](n2cnc3c(N)ncnc32)[C@H](O)[C@@H]1OP(=O)(O)O", "assay": "purified protein", "assay_type": "biochemical, Enterococcus faecalis", "conditions": "5 mM KH2PO4, 25 mM Tris-HCl, 40 mM KCl, pH 8.0, room temperature, anaerobic, 10 uM to 5 mM acetyl-CoA"}}}
{"molecule": "Enterococcus faecalis coenzyme A persulfide (CoASSH) reductase", "values": [{"measurement": "stoichiometry N", "setting": "[1]", "value": 2}]}
{"molecule": "CC(C)(COP(=O)(O)OP(=O)(O)OC[C@H]1O[C@@H](n2cnc3c(N)ncnc32)[C@H](O)[C@@H]1OP(=O)(O)O)[C@@H](O)C(=O)NCCC(=O)NCCSS", "note": "[CoASSH]", "values": [{"measurement": "inhibition of acetyl-CoA formation", "setting": "[2]", "value": "This inhibition of activity was due to CoASSH specifically"}]}
{"molecule": "CoA", "values": [{"measurement": "Km", "setting": "[3]", "value": 69, "unit": "µM"}]}
{"molecule": "Ef Pta / EfPta (phosphotransacetylase) (Enterococcus faecalis OG1RF) (protein, Ni-NTA and Superdex G200; C182 in CoA pocket, R319, S318, D325 in active site) MYDGFCKYKTGGFIVELFDSLKFKVVRRNIKIVFPEATDPRILGAAARLKSDELVEPILIGDPTDIANAAMARGINTSNFIIINPNDYEKWDEMVEAFVERRNGKATKEDAEKILKDVNYFGTMLTYMGIADGMVSGAIHSTGDTVRPALQIIKTKPGVSRTSGAFLMIRGRDQERYLFSDCAINVNPTAQELAEIAVDSAKTAELFDIEPKVSLLSFSTKGSAKAPEVTKVAEATKIAQELAPEYAIDGELQFDASYVSSVAQLKAPNSKVAGEATVFVFPDLQSGNIGYKIAQRLGNFEAIGPILQGLNKPVSDLSRGANEEDVYKLSIITAAQTLMND", "values": [{"measurement": "Km", "setting": "purified protein", "value": "57 (±16) μM"}]}
